The data set is described as follows: soluble on expression in E. coli; label from the status in PepcDB or PDB records.
Consider “GSPGIPMVAAHAAHSQSSAEWIACLDKRPLERSSEDVDIIFTRLKGVKAFEKFHPNLLRQICLCGYYENLEKGITLFRQGDIGTNWYAVLAGSLDVKVSETSSHQDAVTICTLGIGTAFGESILDNTPRHATIVTRESSELLRIEQEDFKALWEKYRQYMAGLLAPPYGVMETGSNNDRIPDKENVPSEKILRAGKILRIAILSRAPHMIRDRKYHLKTYRQCCVGTELVDWMIQQTSCVHSRTQAVGMWQVLLEDGVLNHVDQERHFQDKYLFYRFLDDEREDAPLPTEEEKKECDEELQDTMLLLSQMGPDAHMRMILRKPPGQRTVDDLEIIYDELLHIKALSHLSTTVKRELAGVLIFESHAKGGTVLFNQGEEGTSWYIILKGSVNVVIYGKGVVCTLHEGDDFGKLALVNDAPRAASIVLREDNCHFLRVDKEDFNRILRDVEANTVRLKEHDQDVLVLEKVPAGNRAANQGNSQPQQKYTVMSGTPEKILEHFLETIRLEPSLNEATDSVLNDFVMMHCVFMPNTQLCPALVAHYHAQPSQGTEQERMDYALNNKRRVIRLVLQWAAMYGDLLQEDDVAMAFLEEFYVSVSDDARMMAAFKEQLPELEKIVKQISEDAKAPQKKHKVLLQQFNTGDERAQKRQPIRGSDEVLFKVYCIDHTYTTIRVPVAASVKEVISAVADKLGSGEGLIIVKMNSGGEKVVLKSNDVSVFTTLTINGRLFACPREQFDSLTPLPEQEGPTTGTVGTFELMSSKDLAYQMTTYDWELFNCVHELELIYHTFGRHNFKKTTANLDLFLRRFNEIQFWVVTEVCLCSQLSKRVQLLKKFIKIAAHCKEYKNLNSFFAIVMGLSNVAVSRLALTWEKLPSKFKKFYAEFESLMDPSRNHRAYRLTAAKLEPPLIPFMPLLIKDMTFTHEGNKTFIDNLVNFEKMRMIANTARTVRYYRSQPFNPDAAQANKNHQDVRSYVRQLNVIDNQRTLSQMSHRLEPRRP”, for which the “soluble on expression in E. coli” value was “soluble”. As to “MSSKYNSLKLVKVKNVGDFVYKVSLNRPSKFNALNMVIWKEIGDCFQLIDEDPECRVVILQGEGKHFCSGLDLSEVTFLNGEEADDSARRGRSILRTIKFMQKQFTYIDECSKPVILAMHGYCLGAALDIATACDVRVATKDAVLSVKEVDIGMAADVGTLNRLPKIVGNHSWIKDISLSARHFSAGEALQFGLLSRVYDTREEMINEVLKMAKLIALKSPVGVQGTKNALNYARDHTVENSLNYVATWNMSQLFTDDIMKASMASLSKQPTPPFSKL”, the “soluble on expression in E. coli” value is “not soluble”.

On to “MDSLQKTTMIDLLLRSDKRRKILLFLKEGPKNIEEITALLGSSCTAVLPQMKKLIEKGLVRQENKIYRLSTVGMIVTEKLVPLLGTIEVFENNLEYWAQKDLTGIPAFLRLKLEMLSQYEVIEPQLNRMFEPPEEFINSLKKSTEIMYFSSFFQPCFSGFDQDFLKKRTDSTFIFTKNFFERISSPHSEEYDELLLPERANLYVYDGISSLVSLTVTERFMALMLLNKKGKLDQNLLISSESEAIEWGKELFMYYREISKKIYGDKADRLLSEKIIPPGKKSGYGTGSDLLQISCLRKTKYKMAAALEHHHHHH”, for which the “soluble on expression in E. coli” value is listed as “not soluble”. With “WLRDVLDSEAFRHTQATLPMALGKDISGQPIVVDMAKMPHLLVAGQTGGGKSVGINTMILSLLFKLTPEQVRFIMIDPKVVELSVYNDIPHLLTPVVTDMKKAANALRWAVGEMERRYLLISHLQVRNIEGYNDKIDQASAMNFPIPDPTWRPADSIGQLPPPLTKLSYIVLIVDEFADLIMSAGKEVEEYIMRIAQKARAVGIHLILATQRPST”, the “soluble on expression in E. coli” value is “not soluble”. The entry for “MKRKTIDIITLGCSKNLVDSEQLMRQLEEAGYDVTHDSEKPTGEIAVINTCGFIGDAKEESINMILEFAQEKEEGNLEKLFVMGCLSERYLKELAIEIPQVDKFYGKFNWKGLLQDLGKAYHEELHIERTLTTPKHYAYLKISEGCDRKCSYCAIPIITGRHVSRPIEEILDEVRYLVSNGVKEFQVIAQELTYYGVDLYKKQMLPELIERISEIPGVEWIRLHYAYPAHFPEELFRVMRERDNVCKYMDIALQHISDNMLQRMRRHVTKKETYRLIEQFRKEVPGIHLRTTLMVGHPGETEGDFEELKEFVRKVRFDRMGAFTYSEEEGTYAAANYEDSIPQELKQARLDELMAIQQGISTELSASKVGQKMKVIIDRIEGEYYIGRTEFDSPEVDPEVLIRCEGDNLMIGNFYQVQVIDSDEFDLFGEIILEHHHHHH” is “soluble”. For “MSSEKRVGMVEKSNNKRQRVNQVPVFSINDHHDVLVEILRRLDGSSLCSAACVCRLWSAVARNDSIWEELCFRQVSPRPSLSLRSVVSALGGYRCLYFLCIRPVLARLPKLLWTRDQLQLSLSLYCVHYYERLYVGAWLGDAPPSSLIFLRKPVNVV” the value was “soluble”; for “MSLNARSYLEQQLTGQNANAANALALAITQSQADKAMAETLINATFDQGYFHHIRWQGADGKVRVDRVNEAVFPAAPGWFRALLPLSPQPGSALVTAGWMQAGEIRVEAALGYAYESLWRGALQTMLWLLGTGLLAGLLGSIDIFKLRRDLQRVVNQARAISEHRFQRMTEPKVPELARVVGAMNQMVERLQSFLGEQSEEVEQLRRERHTDPVTGLPNREALEQAVSSTLAEEDDVRGCLLLLRLAGLAELNQRLGGERADALLVRLAADLEDLAARRKGWMAARLRGADFAVFCPELDMDGGRQLAETLCEQLALYRQMGLSDRDGIGHIGVCGIVQGDGLASLLARASQALAEAEAAGDNQWRVDDGAGPDVGSEWDWRELIEAACREHSEGHHHHHH”, “soluble”; for “MRKLVVGSRRSKLALTQSQQFIDKLKAVEPNLEIEIKEIVTKGDRIVDKQLSKVGGKGLFVKEIQHELFEKNIDMAIHSLKDVPSVIPEGLTLGCIPDRELPFDAYISKTHTPLSQLPEGSIIGTSSLRRGAQILSKYPNLEIKWIRGNIDTRLEKLQTEDYDAIILAAAGLRRMGWSDDIVTSYLDRDTLLPAIGQGALGIECRSDDEELLTLLSKVHNDEVAKCVTAERTFLAEMDGSCQVPIAGYATISDQNEIEFTGLIMTPDGKERFEYTMNGTDPVELGKTVSNKLKEQGAYEIIKRLNEQH”, “not soluble”. The entry for “MGKNFDEAALLKSLEGVPDAEKVQKLIKKLAESEKQNAELKIKVLDYDKVVKVKDLTEKKLERNNQILLRTEEAKSKLEELCRGLQKANHQTREEACAKMKKLEVERGLAVEQLKVTLKDIEKTMAEGRSKSDSLAEDNKKLSEKFSEIGHQYEEKMKVIDQQIQKKEKYWEEYGKTKDLEIKLLTAKLESASIQVKKSGMEKDELAKIMLEETARVGGALKTEKALREQVQEYSAKYSELTSCLSKSNEAFDKFKDEISRVNKKCMQVEKEGLSYKKKSDEANKKVLVLTMTNQEYAEKIATSDKKIQMLENLCRALRKGEQEPVTTAETTEAN” is “not soluble”. “MRSKRWKTSDITDYGKKRKESESCGSSSPILETQSSGGAELDEVTEDEYSSNSSSNETSDEEENSEVPNVLSITEREKSWQKLTENDLGRIRFILKYTSNTKKCVNEYFQYNHGQNNEIMKSLLLDTDGTMTAKACSECAYDLNQCHCKKPLRFINAPCEVINQVLHVENAEPTRINHVIATLFRNHIGEIFTKARTAEARASEEAQIRIQIQDNSNAFQRSYHNDPQPSSAEEHEEDIVVDG”: the “soluble on expression in E. coli” value is given as “not soluble”.

As for “SGIIKMAIRFDRRAYPPQITPKMCLLEWCRREKLPQPVYETVQRTIDRMFCSVVTVAEQKYQSTLWDKSKKLAEQTAAIVCLRSQGLPEGRLGEESPSLNKRKREAPDQDPGGPR”, the “soluble on expression in E. coli” value is given as “soluble”. With “MAENIPLRVQFKRMKAAEWASSDVVLLEGEIGFETDTGFAKFGDGQNTFSKLKYLTGPKGPKGDTGLQGKTGGTGSRGPAGKPGTTDYDQLQNKPDLGAFAQKEETNSKITKLESSKADKNAVYLKAESNAKLDEKLNLKGGVMTGQLQFKPNSGIKPSSSVGGAINIDMSKSEGAAMVMYTNKDTTDGPLMILRSNKDTFDQSVQFVDYKGTTNAVNIVMRQPTTPNFSSALNITSANEGGSAMQIRGVEKALGTLKITHENPSVDKEYDKNAAALSIDIVKKQKGGKGTAAQGIYINSTSGTTGKLLRIRNLNDDKFYVKPDGGFYAKETSQIDGNLKLKDPIANDHAATKAYVDGEVEKLKALLAAKQM”, the “soluble on expression in E. coli” value is on record as “not soluble”. For “MGSDKIHHHHHHMKSRFYRPLSLASVSPSYFPEIALYVRNSGNYILYKNHDRQFTEEDRHRLERTNTSFLYVRSGDMDAVTEYLEQNLDTLLARDDIDSNAKGTILYQTAANYVTDVFDEPGKTADIIRCRSLIRHLMKYVAGHEDALKALQAITSQNYYIFTHSVQVAALMMLVHDRLFRLNQDEMIDVGIGSLLHDVGMVFLSGQLLDKPDALAAIEYHKAKQHAQKGYEHLQSAGTLSEVSLTIVRHHHEKYDGSGYPAGLKGDDIPRSAQLAALCDTYCAMTTDRPKHTALPGAEALRIMEDEVGGAFSPDLFYRFADVVKGKGKA” the value was “not soluble”; for “MNTLIPISEQTVGQETVQTVNARDLHAFLEVKTSFKDWIIRRIQDCKFKEGYDFCSFLSESSGGRPSKEYHITLDMAKHLSMIERNDKGHEARQYFNFLFDNMSVLCLLSNQVPQKHLKYTAGRLPKQSLLRTLKALTHYMLVAYKWLVGCGYAIQYPRGESVTTDCVPCF”, “soluble”; for “MSLNSESLGLLQEFLKTHKYKEFRDQAKNLRAPFILQAIVSTPTTVKYYTQGRLIKCCETDSTGNITTSYTYNDKGQLTTTLSVTEKNGQPINEVQTSRLYDPQGHCIFEVKTNPKTKTDFYRRARRIGIDGSIESDSLKYMDGRYTVSSYNKQGLLTETKEYNKNGEMEGYTVNKYDDKGRMTESQHQNMLFVNSPNQILSQKELYEYDKYGYLTRIVYQRIFGNSQKTSGCLTCLYDEYGNRIDGDSYYEYDNTGQWICRTSYDNPQQVERIQYIYKEGHHHHHH”, “not soluble”. Turning to “MSFEAFTELYIRDVKNRLKENTWLTKEHIIRTKILPFFGKLKISEISTKEIITWQNEMLAYRDEKKKPYSQTYLKTLHNQLSAIFNHAVRYYELRSNPAAKVGNMGSELEHHHHHH”, the “soluble on expression in E. coli” value was “not soluble”.

Regarding “GFIELHAHLAFQKVPADIVLRHGVTTLRDVGGPVHPPYGGEGSLRVLTSGRIITAPHGYPIVTMGARDLAIPVASEAEAREAVRHLVGEGAVIIKIALEPGSEAGAPWSSHHDHAHHDAAHTASAVTHHHAHAASHDQSAWPMLPEPIVKAVVDEAHRHQRKVSAHVAEPSGVQVALNAGVDEWAHMPCNPIPEPLLKQARAQNVTIIGTLDTLSKCSGIAHNTMVWTELGGELLYGTEIAHPDIPWGIDAQELMYLMHLGKMKLLDALGAATAKAGRYLGIPMLGTIQPGAPADLIAIRGNPEQQLKRLEYPDLVISGGHIVVNHFSSLP”, the “soluble on expression in E. coli” value is on record as “not soluble”. For “MAAQKKIPLRKCVVTGEMKPKREMVRIVRSKEGEVSIDPTGKKAGRGAYITLDPECILQAKKKNILARHLKADIDDAIYDELLALAEKEKQAGHEA” the value was “soluble”; for “RTGRELLDMCRASGHSVAGLMMRNELTWRGAAEIEQGLDRIWEVMQECVARGCGIGHPEADGDLPGPLKVRRRAPELYRALTQRAERTLSDPLSVMDWVNLYAMAVNEENAAGGRVVTAPTNGAAGIIPAVLHYYDRFVPAANRAGVHDFLLTAAAIGLLYKYNASLSGAEVGCQGEVGVACSMAAGALAAVQGGSVEQVENAAEIGMEHNLGLTCDPVGGLVQIPCIERNAMASVKAVNAARMALRGDGHHYVSLDSVIKTMRETGADMKTKYKETARGGLAVN”, “not soluble”; for “MALLAEHLLRPLPADKQIETGPFLEAVSHLPPFFDCLGSPVFTPIKADISGNITKIKAVYDTNPTKFRTLQNILEVEKEMYGAEWPKVGATLALMWLKRGLRFIQVFLQSICDGERDENHPNLIRVNATKAYEMALKKYHGWIVQKIFQAALYAAPYKSDFLKALSKGQNVTEEECLEKVRLFLVNYTATIDVIYEMYTRMNAELNYKV”, “soluble”.
